{
  "source": "the RNAGym collection of RNA variant scans (doi:10.1073/pnas.2313332121)",
  "parents": {"B1": {"name": "TPR 5TU (parent)", "chain": "GGAUCUUCUCGAUCUAACAAAAAAGACAAAUCUGCCACAAAGCUUGAGAGCAUCUUCGGAUGCAGAGGCGGCAGCCUUCGGUGGCGCGAUAGCGCCAACGUUCUCAACUAUGACACGCAAAACGCGUGCUCCGUUGAAUGGAGUUUAUCAUG"}},
  "note": "Fewer inactive variants are shown than the library holds.",
  "data": [
    {"variants_of": "B1", "experiment": "polymerase ribozyme fitness, log enrichment relative to wild type (log ratio); higher = more active; in vitro selection for triplet polymerase activity", "method_in_brief": "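One round of in vitro selection, in triplicate, was applied to PCR-built, transcribed mutant libraries of each subunit of a heterodimeric triplet polymerase ribozyme. The steps were annealing with a biotinylated primer, partner subunit and triplets, incubation frozen at −7 °C, gel excision of extended constructs, streptavidin-bead capture and RT-PCR. Fitness is the logarithm, base 2, of genotype enrichment over wild-type enrichment from inverse-variance-weighted replicate averages of Illumina-sequenced inputs and outputs, keeping genotypes with ≥10 input reads and ≥1 read per output.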", "values": [
      {"variant": "GGAUCUUCUCGAUCUAACAAAAAAGACAAAUCUGCCACAAAGCUGGAGAGCAACUUCGGAUGCAGAGGCGGCAGACUUCGGUGGCGCGAUAGAGCCAACGUUCUCAACUAUGGCACGCAAAACGCGUGCUCCGUUGAAUGGAGUUUAUCAUG", "note": "[U45G U53A C75A C93A A113G]", "polymerase ribozyme fitness (log ratio)": "≤ -4.2"},
      {"variant": "GGAUCUUCUCGAUCUAACAAAAAAGACAAAUCUGCCACAAAGCUUAAGAGCAUGUUCGGAUGCAGAGGCGGCAGCCUUCGGUGGCUCGAUAGCGCCAACGUUCUCAACUAUGACACACGAAACGCGUGCUCCGUUGGAUGCAUUUUAUCAUG", "note": "[G46A C54G G86U G117A A119G A137G G141C G143U]", "polymerase ribozyme fitness (log ratio)": "≤ -4.2"},
      {"variant": "GGAUCUUCUCGAUCUAACAAAAAAGACAAAUCUGCCACAAAGCUUAAGAGCAUCUUCGGAUGCAGAGGCGGCAGCAUUCGGUGGCUCGAUAGCGCCAACGUUCUCAACUAUGACACGCAAUACGCGUGCUCCGUUGAAUGGAGGUUAUCAUG", "note": "[G46A C76A G86U A121U U144G]", "polymerase ribozyme fitness (log ratio)": "≤ -4.2"},
      {"variant": "GGAUCUUCUCGAUCUAACAAAAAAGACAAAUCUGCCACAAAGCUUAAGAGCGUCUUCGGAUGCAGAGGCGGCAGCCUUCGGUGGAGCGAUAGCGCCAACGUUCUCAACUAUGACACGCAAAACGCGUGCUCCGUUGAAUGGAGUUUAUCAUG", "note": "[G46A A52G C85A]", "polymerase ribozyme fitness (log ratio)": -2.54},
      {"variant": "GGAUCUUCUCGAUCUAACAAAAAAGACAAAUCUGCCACAAAGCUUAAGCGCAUCUUCGGAUGCAGAGGCGGCAGCCUUCGGUGGCGCGAUAGCGCCAACGGUCUCAACUAUGACACGCAAAACGCGUGCUCCGUUGAAUGGAGUUUAUCAUG", "note": "[G46A A49C U101G]", "polymerase ribozyme fitness (log ratio)": "≤ -4.2"},
      {"variant": "GGAUCUUCUCGAUCUAACAAAAAAGACAAAUCUGCCACAAAGCUUAAGAGCAUGUUCGGAUGCAGAGGCGGCAGCCUUCGGUGGCGCGAUAGCGUCAACGUUCUCAACUAUGACACGCAAAACGCGUGCUCCGUUGAAUGGAGUUUAUCAUG", "note": "[G46A C54G C95U]", "polymerase ribozyme fitness (log ratio)": -2.17},
      {"variant": "GGAUCUUCUCGAUCUAACAAAAAAGACAAAUCUGCCACAAAGCUUAAGAGCAUCUUCGGAUGCAGAGGCGGCAGCCUUCGGUGGCGCGAUAGUGCCAACGUUCUCAACUAUGACACGCAAAACGCGUGCUCCGUUGAAUGGAGUUUAUCAUG", "note": "[G46A C93U]", "polymerase ribozyme fitness (log ratio)": -1.21},
      {"variant": "GGAUCUUCUCGAUCUAACAAAAAAGACAAAUCUGCCACAAAGCUUAAGAGCAUCUUCAGAUGCAGAGGCGGCAGCCUUCGGUCGCGCGAUAGCGCCAACGUUCUCAACUAUGACACGCAAAACGCGUGCUCCGUUGAAUGGAGUUUAUCAUG", "note": "[G46A G58A G83C]", "polymerase ribozyme fitness (log ratio)": -1.17},
      {"variant": "GGAUCUUCUCGAUCUAACAAAAAAGACAAAUCUGCCACAAAGCUUAAGAGCAUCUUCGGAUGCAGAGGCGGCAGCCUUCGAUGGCGCGAUAGCGCCAACGUUCUCAACUAUGACACGCAAAACGCGUGCUCCGUUAAAUGGAGUUAAUCAUG", "note": "[G46A G81A G136A U146A]", "polymerase ribozyme fitness (log ratio)": 0.373},
      {"variant": "GGAUCUUCUCGAUCUAACAAAAAAGACAAAUCUGCCACAAAGCUUAAGAGCAUCUUCGGAUGCAGAGGCGGCAGCCUUCGGUGGAGCGAUAGCGCCAACGUUCUCAACUAUGACACGCAAAACGCGUGCUCCGUUGAAUGGAGUUUAUCCUG", "note": "[G46A C85A A150C]", "polymerase ribozyme fitness (log ratio)": "≤ -4.2"},
      {"variant": "GGAUCUUCUCGAUCUAACAAAAAAGACAAAUCUGCCACAAAGCUGGAGAGCAUCUACGGAUGCAGAGGAGGCAGCCUUCGGUGGCGCGAUAGCGCAAACGUUCUCAACUAUGACACGCAAAACGCGUGCUUCGUUUAAUGGAGUUUAUCAUG", "note": "[U45G U56A C69A C96A C131U G136U]", "polymerase ribozyme fitness (log ratio)": -3.1},
      {"variant": "GGAUCUUCUCGAUCUAACAAAAAAGACAAAUCUGCCACAAAGCUGGAGAGCAUCUUCGGAUGCAGAGGCGGCAGCCUUCGGUGGCGCGAUAGCGCCAACGUUCUCAACUAUGACACGCAAAACGCGUGCUCCGUUGAAUGGAGUUUAUCAUA", "note": "[U45G G152A]", "polymerase ribozyme fitness (log ratio)": -1.18},
      {"variant": "GGAUCUUCUCGAUCUAACAAAAAAGACAAAUCUGCCACAAAGCUUAAGAGCAUCUUCGGAUGCAGAGCCGGCAGCCUUCGGUCGCGCGAUAGCGCCAACGUUCUCAACUAUGACACGCAAAACGCGUGCUCCGUUGAAUGGAGUUUUUCAUG", "note": "[G46A G68C G83C A147U]", "polymerase ribozyme fitness (log ratio)": "≤ -4.2"},
      {"variant": "GGAUCUUCUCGAUCUAACAAAAAAGACAAAUCUGCCACAAAGCUUAAGACCAUCUACGGAUGCAGAGGCGGCAGCCUUCGGUUGCGCGAUAGCGCCAACGUUCUCAACUAUGACACGCAAAACGCGUGCUCCGUUGAAUGGAGUUUCUCAUG", "note": "[G46A G50C U56A G83U A147C]", "polymerase ribozyme fitness (log ratio)": "≤ -4.2"},
      {"variant": "GGAUCUUCUCGAUCUAACAAAAAAGACAAAUCUGCCACAAAGCUUAAGAGCAUCUUCGGAUGCAGAGGCGGCAGCCUUCGGUGGAGCGAUAGCGCCAACGUUCUCAACUAUGACACGCAAAACGCGUGCUCCGUUUAAUUGGGUUUAUCAUG", "note": "[G46A C85A G136U G140U A142G]", "polymerase ribozyme fitness (log ratio)": "≤ -4.2"},
      {"variant": "GGAUCUUCUCGAUCUAACAAAAAAGACAAAUCUGCCACAAAGCUUAAGAGCAUCUUCGGAUGCAGAGGCGGCAGCCUUCGGUGGCGCGAUAGCGCCCACGUUGUCAACUAUGACACGCAAAAAGCGUGCUCCGUUGAAUGCAGUUUCUAAUG", "note": "[G46A A97C C103G C123A G141C A147C C149A]", "polymerase ribozyme fitness (log ratio)": "≤ -4.2"},
      {"variant": "GGAUCUUCUCGAUCUAACAAAAAAGACAAAUCUGCCACAAAGCUUAAGAGCAUCUUCGGAUGCAGAGGCGGCAGCAUUCGGUGGCGCGAUAGCGCUAACGUUCUCAACUAUGACACGCAAAACGCGUGCUCCGUUGAAUGCAGUUUAUCAUG", "note": "[G46A C76A C96U G141C]", "polymerase ribozyme fitness (log ratio)": "≤ -4.2"},
      {"variant": "GGAUCUUCUCGAUCUAACAAAAAAGACAAAUCUGCCACAAAGCUUAAGAGCAUCUUCGGAUGCAGAGGCGGCAGCCUUCGGUGGAGCGAUAGCGCCAACGUUCUCAACUAUGACACGCAAAACGCGUGCUCCGUUGAAUGGAGUUUAUCAUG", "note": "[G46A C85A]", "polymerase ribozyme fitness (log ratio)": -2.16},
      {"variant": "GGAUCUUCUCGAUCUAACAAAAAAGACAAAUCUGCCACAAAGCUUAAGAGCAUAUUCGGAUGCAGAGGCGGCAGCUUUCGGUGGCGCGAUAGCGCCAACGUUCUCAACUAUGACACGCAAAACGCGUGCUCCGUUGAAUGGAAUUUAUCAUG", "note": "[G46A C54A C76U G143A]", "polymerase ribozyme fitness (log ratio)": "≤ -4.2"}
    ]}
  ]
}
